Test: yeast display, Sf9 membrane polyspecificity reagent, FACS + sequencing; frameworks hold sequencing errors
Outline: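 Sorting gates, low and high (top ~1%), were placed on anti-HA fluorescence to track expression and on streptavidin fluorescence to track reagent binding. A clone's polyreactivity label is taken from the gate it came out of. The reagent was 10% biotinylated, detergent-solubilized Sf9 membrane, applied for 1 hour at 4 °C to galactose-induced yeast display cells.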

Row | Sequence | polyreactivity (PSR sort gate)
1 | QVQLVESGRGLVQAGGSLRLSCAASGLIFTANAMGWYRQAPGKERELVASITRDGGTNYADSVKVRFTISRDNAKNTVYLQMNSLKPEDTAVYYCAKESGSVLTLYDYWGQGTQVTVSS | low polyreactivity
2 | QVLLVESGGGLVQEGGSLRLSCAASGIIFQFYAMGWYRQAPGKERELVAAISRSGGITHYADSVKGRFTISRDNAKNTVYLQMNSLKPEDTAVYYCAAVRQAYPRLDYWGQGTQVTVSS | high polyreactivity
3 | QVQLVESGGGIVQAGGSLRLSCAASGFISSVNAMGWYRQAPGKDRELVAAISDSATSTYYADSVKGRFTISRDNAKNTVYLQMNSLKPEDTAVYYCDAYSHYVGYEYWGQGTQVTVSS | high polyreactivity
4 | QVQLVESGGGLVQAGGSLRLSCAASGFISPPYAMGWYRQAPGKERELVAAIRSSGGSTYYADSVKGRFTISRDNPKNTVYLQMNSLKPEDTAVYYCNADWIYISSYGWYSYDYWGQGTQVTVSS | high polyreactivity
5 | QVQLVESGGGLVQAGGSLRLSCAASGIIFPWYTMGWYRQAPGKERELVAAISSGGRTNYADSVKGRFTISRDNAKYTVYLQMNSLKPEDTAVYYCAAKYYRDRDWGQGTQVTVSS | high polyreactivity
6 | QVQLVESGGGLVQAGGSLRLSCAASGSTFLKNAMGWYRQAPGKERELVAAISYSTTRTYYAVSVKGRFTISRDNAKNTVYLQINSLKPEDTAVYYCAARYDRSSKRNYWGQGTQVTVSS | low polyreactivity
7 | QVQLVESGGGLVQAGGSLRLSCAASGRTFVLNVMGWYRQAPGKERELVADITSGDNTYYADSVKGRFTISRDNAKNTVYLQRNSLKPEDTAVYYCAADGWFYFGYDYWGQGTQVTVSS | low polyreactivity
8 | QVQLVESGGGLVQAGGSLRLSCAASGFTFQIYAMGWYRQAPGKERELVAAITWSGGRTYYGDSVKGRFTISRDNAKNTVYLQMNSLKREDTAVYYSNARYTTGSDPGGPGTYGYWGQGTQVTVSS | low polyreactivity
9 | QVQLVESGGGLVQAGGRLRLSCAASGFIFRRYAIGWYRQAPGKERELVAAINRGGRTYYADSVKGRFTISRDNAKNTVYLQMNSLKPEDTAVYYCAVGSVSSDDWGQGTQVTVSS | high polyreactivity
10 | QVQLVESGGGLVQAGGSLRLSCAASGSISRFYAMGWYRQAPGKERELVAAISWSGGRPYYADSVKGRFTISRDKAKNTVYLQMNSLKPEDTAVYYCNAYRRYNDEDYWGQGTQVTVSS | high polyreactivity
11 | EEELVESGGGLVQAGGSLRLSCAASGRTYPNTMGWYRQAPGKERELVAAITTSGTSTRYADSVKGRFTISRDNAKNTVYLQMNSLKPEDTAVYYCATRYSGKTYHYNYWGQGTQVTVSS | high polyreactivity
12 | QVQLVESGGGLVQAGGSLRLSCAASGFIFQKYAMGWYRQAPGKERELVAAITKRGGSTYYADSVKGRFTISRDNAKNTVYLQMNSLKPEDTAVYYCAAYAYDYEYDYWGQGTQVTVSS | high polyreactivity
13 | QVQLVESGGGLVQAGGSLRLSCAASGSIFGAYTMGGYRQAPGKERELVAAISIGGSTNYADSVKGRFTISRDYAKNTVYLQMNSLKPEDSAVYYCNAEPDLEDWWWAIGLYDYWGQGTQVTVSS | high polyreactivity
14 | QVQLVESGGGLVQAGGSLRLSCAASGFIFIINAMGWYRQAPGKERELVAGIRWSGGSTYYADSVKGRFTISRDNAKNTVYLQMNSLKPEDTAVYYCNKDRGSLTLYTYDYWGQGTQVTVSS | low polyreactivity
15 | QVQLVESGGGLVQAGGSLRLSCAASGSIFLSNAMGWYRQSPGKERELVAAISSSGGSTYYADSVKGRFTISRDNAKNTVYLQMNSLKPEDTAVYYCAATGYGFRGRFDYWGQGTQVTVSS | low polyreactivity
16 | QVQLVESRGGLVQAGGSLRLSCAASGITFILYAMGCYRQAAWKERELVASITSGGSTDYADSVKERFTISGDNAKNTVYLQMNSLKPEDTAVYYCNAAARGSSFDYWGQGTQVTVSS | low polyreactivity
17 | QVQLVESGGGLVQAGGTLRLSCAASGRIFSKNAMGWYRQAPGKERELVAAMSSSGTSTYYADSVKGRFTISRDNAKNTVYLQINSLKPEDTAVYYCAARVSLTTYSYYSWGQGTQLTVSS | high polyreactivity
18 | QVQLVESGGGLVQARGSLRLSCAASGRIFPVNTMGWYRQAPGKERELVAAITSGGGTYYADSVKGRFTISRDNAKNTVYFQMNSLKPEDTAVYYWTAPEGRKPYDSWGQGTQVTVSS | low polyreactivity
19 | QVQLVESGGGLVQAGGSLRLSCAASGRTFWNYAMGWYRQAPGKERELVAVIRFSDGSTYYADSVKGRFTISRDNAKNTVYLQMNSLKPEDTAVYYCAADDLLDYDYWGQGTQVTVSS | low polyreactivity
20 | QVQLVESGGGLVQAGGSLRLSCAASGRTFQRNAMGWYRQAPGKERELVAAITSGSRTNYADSVKGRFTISRDNAKNTVFLQMNSLKPEDTAVYYCAADYTWRNNYWGQGTQVTVSS | high polyreactivity
21 | QVQLVESGGGLVQAGGSLRLSCAASGFILNKNVMGWYRQAPGKERELVAAITGSGGRTYYADSVKGRFSISRDNAKNTVYLQMNSLKPEDTAVYYCAARRPLVRYIMGYWGQGTQVTVSS | high polyreactivity
22 | QVQLVESGGGLVQAGGSLRLSCAASGFTFRTNAMGWYRQAPGKERELVAAISRSGGSTYYADSVKGRFTISRDNAKNTVYLQMNSLKPEDTAVYYCATVKVSHRRYDYWGQGTQVTLSS | high polyreactivity

Row | Sequence | polyreactivity (PSR sort gate)
23 | QVQLVETGGGLVQAGGTLRLSCAASGRIFRRYAMVWYRQAPGKEREFVAAITDGSTYYADSVKGRFTISRDNAKNTVYLQMNSLNPEDPAVYYCATQFGWSYSRRFYYWGQGTQVTVSS | high polyreactivity
24 | QVQLVESGGGLVQAGGSLRLSCAASGITFRGYAMGWYRQAPGKERELVAAITWSGGSTYYADSVKGRFTISRDNAKNTVYLQMNSLKPEDTAVYYCAAYSLHNYLSEYGYWGQGTQVTVSS | high polyreactivity
25 | QVQLVESGGGIVQAGGSLRLSCAASGFIFSSYAMGWYRQAPGKERELVAAITVRAGRTYYADSVKGRFTISRDNAKKTVYLQMNSLKPEDTAVYYCNAVSTAVIGYEYDYWGQGTQVTVSS | high polyreactivity
26 | QVQLVESRGCLVQAGVSLRLSCSASGSIFKIYAMGWYRQAPGKERELVATITGIADSTYYADSVKGRFTISRDNAKNTVYLLMNSLKPDDNAVYYCAADNYVADYDYWGQGTQVTVSS | low polyreactivity
27 | QVQLVESGGGLVQAGGSLRLSCAASGSTFWFYAMGWYRQAPGKERELVAVISNSGSTYYADSVKGRFTISRDNAKNTVYLQMNSLKPEDTAVYYCNKDGGGDSYWYDYWGQGTLVTVSS | low polyreactivity
28 | QVQLVESGGGLVQAGGSLRLSCAASGSIIAGYTMGWYRQAPGKERELVAGIRRGGSTNYADSVKGRFTISRDNAKNTVYLQMNSLKPEDTAVYYCNAQRTRSYVLRTFDYWGQGTQVTVSS | high polyreactivity
29 | QVQLVESGGGLVQAGGSLRLSCAASGSTFYYNTMGWYRQAPGKERELVAAISWRGGSTYYADSVKGRFTISRDNAKNTVYLLMNSLKPVDTAVYYCAAGWYPRSVRPFESFVGLDYWGQGTQVTVSS | high polyreactivity
30 | QVQLVESGGGLVQAGGSLRLSCAASGSTFNAYAMGWYRQAPGKERELVAAISSSGGRTHYADSVKGRFTISRDNAKNTVYLQMNSLKPEDTAVFYCNVGKRFVRNDYWGQGTQVTVSS | high polyreactivity
31 | QDQDVESGGGLVQARGSLPLSCAASGSIFAWYAMGWYRQSPGKERELLAVITSSDGSTHYADSVKGRFTISRDNAKNSVYLQMISLKPEDTAVYYCAAFRSLRESKGYWWEYYSWGQGTQVTVSS | low polyreactivity
32 | QVQLVESGGGLVQAGGSLRLSCAASGNIFSKYVRGWYRQARGKERELVAAITYSGGSTYYADSVKGRFTISRDNSKNTVYLQMNSLKPEDTGVYYCNAVRRRSSLKLDSWGQGTQVTVSS | high polyreactivity
33 | QDQLVESGGGLVQAGGSLRLSFAASGSIFGVNALGWYRQAPGKERELVAAISARGGSTYYADSVKGRFTISRDNAKNTVYLQMNSQKPEDTAVYYCAATFRARPRENYWGQGTQVTVSS | high polyreactivity
34 | QVQLVESGGGLVQAGGSLRLSCAASGRMFGAYGMGWYRQAPGKERELVAAISNGGRTSYADSVKGRFTISRDNAKNTVYLQMNSLKPEDTAVYYCAAVQLAYTYYWYNDWGQGTQVTVSS | high polyreactivity
35 | QVQLVESGGGLVQAGGSLRLSCAASGRICSQYAMGWYRQAPGKERELVAAISTSGDRTYYADSVKGRFTISRDNAQNSGYLQLNSLKPEDTAVYYCAKDGPYTYGRDIYEYWGQGTQVTVSS | low polyreactivity
36 | QVQLVESGGGLVQAGGSLRLSCAASGSIFTWYAMGWSRQAPGKERELVAAITRGGSTYADSVKGRFTISRDNANYTVYLQMNSLKPADTAVYYCNAVYGVYDFNYWGQGTQVTVSS | low polyreactivity
37 | QVQLVESGGGLVQAGGSLRLSCAASGFTFLINAMGWYRQAPGKERELVAAIRSGGSTNYADSVKGRFTISRDNAKNTVYFQMNSLKPEDTAVYYCAARRYYPYKYRYGYWGQGTQVTVSS | high polyreactivity
38 | QVQLVESGGGLVHAGGSLRISCAASGSTFEWNAMGWYRQAPGKEREFVAAISKTGDGTYADSVKGRFTISRDNAKNSVYLQMNSLKPEDTAVYYCAAVDGFWVNYWYRIGYDYWGQGTQVTVSS | low polyreactivity
39 | QVQLVESGGGLVQAGGSLRLSCAASGFTFYPYSMGWYRQAPGKERELVAAITRGGSTYYADSVKGRFTISRDNAKNTVFLQMNSLKPEDTAVYYCNAYWQGYGYYYWGQGTQVTVSS | low polyreactivity
40 | QVQLEESGGGLVQAGGSLRLSCAASGIIFSPYAMGWYIQAPWKERELVAAINFSTGRTYYADSVKGRFTISRDNAKNTVYLQMNSLKPEDTAVYYCAAGKYPYVFRGGYDYWGQGTQVTVSS | low polyreactivity
41 | QVQLVESGGGLVQAGGSLRLSCAASGRIFWPYAMGWYRQAPGKERELVAAITSGGSTYYADSVKGRFTLSRDNAKNTVYLQMTSLKPEDTAVYYCAKRSSGVSVPVAYGGIKRYNSWGQGTQVTVSS | low polyreactivity
42 | QVQLVESGGGLVQAGGSLRLSCAASGRTFAPYVMGWYRQAPGKERELVAAITWSGGSTYYADSVKGRFTISRDNAKNTVYLQMNSLKPEDTALYYCAVKGAGGPKYDYWGQGTQVTVSS | high polyreactivity
43 | QVQLVESGGGLVQAGGSLRLSCAASGSIFYYYSMGWYRQAPGKERELVARITSGGSTKYADSVKGRFTISRDNAKYTVYLQMNSLKPEDTAVYYCAARYQYNYWGTYGSWGQGTQVTVSS | high polyreactivity
